Experimental findings from patent US20150274820A1 (ESBATECH AN ALCON BIOMEDICAL RESEARCH UNIT, published 2015) are described below.

By koff is commonly meant the rate constant with which the complex falls apart. By kon is commonly meant the second-order rate constant of association.

Test [1] addresses T1, recombinant human VEGF165 (human, UniProt P15692 27-191).
T1 construct: mature; Isoform VEGF165 of the entry; also called hVEGF165; hVEGF
The test is described as follows: Biacore SPR, VEGF immobilized, pH 5. As for the experimental part: (§1) In this example, the Biacore-binding ability of scFvs was tested and the binding affinity was measured using the exemplary surface plasmon resonance method with BIAcore™-T100. The VEGF proteins, tested for binding by these scFv candidates, in this example and later examples include purified Escherichia coli-expressed recombinant human VEGF₁₆₅ (PeproTech EC Ltd.), recombinant human VEGF₁₂₁ (PeproTech EC Ltd.), recombinant human VEGF₁₁₀ (ESBATech AG), recombinant murine VEGF₁₆₄ (PeproTech EC Ltd.), recombinant rat VEGF₁₆₄ (Biovision), recombinant rabbit VEGF₁₁₀ (ESBATech AG), and recombinant human PLGF (PeproTech EC Ltd.). For the surface plasmon resonance experiment, carboxymethylated dextran biosensor chips (CM4, GE Healthcare) were activated with N-ethyl-N′-(3-dimethylaminopropyl) carbodiimide hydrochloride and N-hydroxysuccinimide according to the supplier's instructions. Each of the 6 different VEGF forms, as exemplified above, was coupled to 1 of the 4 different flow cells on a CM4 sensor chip using a standard amine-coupling procedure. […] The 4th flow cell of each chip was treated similarly except no proteins were immobilized prior to blocking, and the flow cell was used as in-line reference. […] Dissociation of the anti-VEGF scFv from the VEGF on the CM4 chip was allowed to proceed for 10 min at 25° C. Sensorgrams were generated for each anti-VEGF scFv sample after in-line reference cell correction followed by buffer sample subtraction. The apparent dissociation rate constant (kd), the apparent association rate constant (kₐ) and the apparent dissociation equilibrium constant (KD) were calculated using one-to-one Langmuir binding model with BIAcore T100 evaluation Software version 1.1.
A general note: In SPR one partner is held on a chip, and binding of the other changes the refractive index at the surface.

The target in test [2] is T1, recombinant human VEGF165. The test is described as follows: Biacore SPR, VEGF immobilized, pH 5. As for the experimental part: as §1
This is another data set of the same source.

Test [3] has as its target T2, recombinant human VEGF121 (human, UniProt P15692 27-147).
T2 construct: mature; Isoform VEGF121 of the entry; also called hVEGF121
T2 sequence (looked up): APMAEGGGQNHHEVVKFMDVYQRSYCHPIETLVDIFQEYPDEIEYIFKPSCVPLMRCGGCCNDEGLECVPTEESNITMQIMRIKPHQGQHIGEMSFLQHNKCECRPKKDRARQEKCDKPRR
Kind of test: Biacore SPR, VEGF immobilized, pH 5. Here is the method:
as §1

The target in test [4] is T3, recombinant human VEGF110 (human, UniProt P15692-4 27-136, limits assumed).
T3 construct: Made in house; also called hVEGF110
T3 sequence (looked up): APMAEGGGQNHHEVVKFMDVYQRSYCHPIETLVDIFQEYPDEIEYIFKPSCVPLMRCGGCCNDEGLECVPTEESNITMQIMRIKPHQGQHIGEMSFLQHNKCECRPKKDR
Kind of test: Biacore SPR, VEGF immobilized, pH 5. As for the experimental part:
as §1

For test [5], the target named is T1, recombinant human VEGF165. Kind of test: Biacore SPR, VEGF immobilized, pH 7.4. As for the experimental part: as §1
Test [6] has as its target T1, recombinant human VEGF165. The test is described as follows: VEGFR1/Fc competition ELISA on coated hVEGF165; ratio to Lucentis. Here is the method: After 30-60 min of incubation at room temperature, the mixtures were transferred to the human VEGF₁₆₅ immobilized plate and incubated for 90 min. […] Optical density at 450 nm (OD 450 nm) was measured using a Sunrise microplate reader (Tecan). Data were analyzed as above, and EC₅₀ values were calculated from the dose-response curves of the scFvs.
(In general: An ELISA detects its analyte on a solid surface through an enzyme-linked reagent.)

Test [7] has as its target T1, recombinant human VEGF165. The test is described as follows: cell-based or functional assay.
Test [8] deals with recombinant murine VEGF164 (mouse) (UniProt Q00731). The test is described as follows: Biacore SPR, VEGF immobilized, pH 5.
In test [9] the target is recombinant rat VEGF164 (rat) (UniProt P16612). The test is described as follows: Biacore SPR, VEGF immobilized, pH 5.
A further test addresses T4, recombinant human PLGF (human, UniProt P49763-2 19-149, limits assumed).
T4 construct: Negative control; also called PIGF
T4 sequence (looked up): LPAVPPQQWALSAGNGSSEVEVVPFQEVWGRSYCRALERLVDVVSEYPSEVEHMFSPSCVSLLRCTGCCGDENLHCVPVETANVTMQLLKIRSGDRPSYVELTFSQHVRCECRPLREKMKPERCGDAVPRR
Kind of test: Biacore SPR, PlGF immobilized, pH 5. Here is the method: as §1

T1 sequence (P15692 other isoform, or with tags, fused parts or gaps): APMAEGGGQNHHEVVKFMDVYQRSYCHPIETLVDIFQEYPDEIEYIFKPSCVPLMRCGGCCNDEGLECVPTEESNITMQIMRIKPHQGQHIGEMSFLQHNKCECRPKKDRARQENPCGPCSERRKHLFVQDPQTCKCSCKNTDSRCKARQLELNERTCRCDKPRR

B1: 509-max (scFv)
scFv: EIVMTQSPSTLSASVGDRVIITCQASQNIRIWLSWYQQKPGKAPKLLIYKASTLESGVPSRFSGSGSGTEFTLTISSLQPDDFATYYCQNNAHYSTNGGTFGQGTKLTVLGGGGGSGGGGSGGGGSGGGGSEVQLVESGGGLVQPGGSLRLSCTASGFSLSSYYMCWVRQAPGKGLEWVGCLDYVGDTDYASWAKGRFTISKDASKNTVYLQMNSLRAEDTAVYYCARTDDSRGWGLNIWGQGTLVTVSS
notes: VL and VH tied by name; also called Protein Nr; 855
As for B1, the koff in test [1] came to 0.00272 s⁻¹; in [2], 0.00272 s⁻¹; in test [3], 0.000249 s⁻¹; in test [4], 0.000235 s⁻¹; in test [5], 0.000537 s⁻¹; in test [8], 0.0059 s⁻¹. For the same molecule, the dissociation rate constant (koff) in test [9] was 0.00645 s⁻¹. In addition, the association rate constant (kon) in [1] stood at 2.26e+06 M⁻¹ s⁻¹; in [2], 2.26e+06 M⁻¹ s⁻¹; in test [3], 742000 M⁻¹ s⁻¹; in [4], 648000 M⁻¹ s⁻¹; in test [5] it was 1.42e+06 M⁻¹ s⁻¹; in test [8], 4.09e+06 M⁻¹ s⁻¹. Besides, the kon in test [9] stood at 3.9e+06 M⁻¹ s⁻¹. The “Rel. activity hVEGR1 comp. ELISA (EC50Luc[nM]/EC50test[nM])” value (shortened to “Rel. activity hVEGR1 comp. ELISA”) in [6] came out at 13. Moreover, the “Rel. activity in HUVEC assay (EC50Luc[nM]/EC50test[nM])” value in test [7] is 0.003. Also, in the test with recombinant human PLGF, the binding result is recorded as “no binding”.

B2: 509-min (scFv)
scFv: EIVMTQSPSTLSASVGDRVIITCQASQNIRIWLSWYQQKPGKAPKLLIYKASTLESGVPSRFSGSGSGAEFTLTISSLQPDDFATYYCQNNAHYSTNGGTFGQGTKLTVLGGGGGSGGGGSGGGGSGGGGSEVQLVESGGGLVQPGGSLRLSCAASGFSLSSYYMCWVRQAPGKGLEWVSCLDYVGDTDYASWAKGRFTISRDNSKNTLYLQMNSLRAEDTAVYYCAKTDDSRGWGLNIWGQGTLVTVSS
notes: VL and VH tied by name; also called Protein Nr; 854
Take B2: the off-rate (koff) in test [1] was 0.00114 s⁻¹; in test [2], 0.00114 s⁻¹; in test [3] it was 0.000453 s⁻¹; in test [4] it was 0.000474 s⁻¹; in test [5], 0.0108 s⁻¹; in [8], 0.001 s⁻¹. Besides, the off-rate (koff) in test [9] worked out at 0.000844 s⁻¹. The kon in test [1] was determined as 623000 M⁻¹ s⁻¹; in test [2], 623000 M⁻¹ s⁻¹; in [3], 354000 M⁻¹ s⁻¹; in test [4] it was 287000 M⁻¹ s⁻¹; in test [5], 3.52e+06 M⁻¹ s⁻¹; in test [8] it was 614000 M⁻¹ s⁻¹. The association rate constant (kon) in test [9] was determined as 351000 M⁻¹ s⁻¹. In addition, the “Rel. activity hVEGR1 comp. ELISA” value in test [6] was 2.9. Further, in the test with recombinant human PLGF, the binding result is given as “no binding”.

B3: 509-maxII (scFv)
scFv: EIVMTQSPSTLSASVGDRVIITCQASQNIRIWLSWYQQKPGKAPKLLIYKASTLESGVPSRFSGSGSGTEFTLTISSLQPDDFATYYCQNNAHYSTNGGTFGQGTKLTVLGGGGGSGGGGSGGGGSGGGGSEVQLVESGGGLVQPGGSLRLSCTASGFSLSSYYMSWVRQAPGKGLEWVGILDYVGDTDYASWAKGRFTISKDASKNTVYLQMNSLRAEDTAVYYCARTDDSRGWGLNIWGQGTLVTVSS
notes: VH tied by name; also called Protein Nr
For B3, the koff in [1] worked out at 0.00282 s⁻¹; in test [2], 0.00282 s⁻¹; in test [3], 0.00123 s⁻¹; in test [4], 0.00133 s⁻¹; in [5], 0.0198 s⁻¹; in [8], 0.0601 s⁻¹. Moreover, the koff in test [9] is 0.0266 s⁻¹. The association rate constant (kon) was 838000 M⁻¹ s⁻¹ in [1]; 838000 M⁻¹ s⁻¹ in [2]; 897000 M⁻¹ s⁻¹ in [3]; 901000 M⁻¹ s⁻¹ in [4]; 7.59e+06 M⁻¹ s⁻¹ in test [5]; 3.47e+07 M⁻¹ s⁻¹ in [8]. Further, the association rate constant (kon) in test [9] came out at 1.47e+07 M⁻¹ s⁻¹. For the same molecule, the “Rel. activity hVEGR1 comp. ELISA” value in [6] stood at 0.09. The “Rel. activity in HUVEC assay (EC50Luc[nM]/EC50test[nM])” value in test [7] worked out at 0.0009. Further, the binding result with recombinant human PLGF is recorded as “no binding”.
